Results published in patent publication US20030216345A1.

Molecular target: acetylated α-tubulin
Assay: cell-based or functional assay

decrease in degree of acetylation of α-tubulin (Western blot of HeLa cells overexpressing HDAC6): 50%
Substance: histone deacetylase 6 (HDAC6), full-length, His6 fused at N-terminal (from UniProt Q9UBN7 1-1215)
